Measurements reported in paper PMC3169410 (Acta Crystallographica Section F: Structural Biology and …, 2011).

Molecular target: the molecule itself
Experiment: crystal structure

B1: BrabA.11339.a, putative β-lactamase-like protein from Brucella melitensis biovar Abortus 2308 (natural protein)
chain: TSPRNCLRFTLLGCGSSPGVPRINGDWGKCDPKNPKNRRRRASLLVERYDAEGNNTVVVIDTGPDFRMQMIDSGVHMLDAAVYTHPHADHIHGIDDLRTYVVDNGRLMDVYANRLTRNRLYDTFGYCFETPVGSSYPPILSMHDIAPETPFSIEGAGGAIRFEPFSQVHGDIESLGFRIGSVVYCTDVSAFPEQSLQYIKDADVLIIGALQYRPHPSHFSLGEALEWIEKLSPKRAILTHMHVPLDYETVMRETPHHVEPGYDGLRFEVAV
notes: also called BAB1_1016
- stoichiometry N: 2
